Biological target: T1, NBD (nonamer binding domain of RAG1) (mouse, UniProt P15919 384-461)
T1 sequence: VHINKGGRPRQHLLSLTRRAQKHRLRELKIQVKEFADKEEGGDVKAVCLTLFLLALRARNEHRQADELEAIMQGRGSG
Experiment: EMSA; 5 mM Ca2+; printed as 'binding constant'; NBD EMSA: 10 mM Tris-HCl pH 7.5, 33 mM KCl, 5 mM CaCl2, 2 mM DTT, 0.1 mg/ml BSA, 6% glycerol, 15 min 30 C; cRAG EMSA: 22.5 mM MOPS-KOH pH 7.0, 20% DMSO, 2.2 mM
Conditions: protein: recombinant; tags: N-terminal His6 (pET28a); label: 5' 32P on AKN3; 5' overhang 1 nt at both ends

B1: 23RSS (II, AKN3/AKN4) (dsDNA)
DNA 1: GATCAGCTGACAGTAGCACAGTGGTAGTACTCCACTCTCTGGCTGTACAAAAACCCTGCT
DNA 2: TAGCAGGGTTTTTGTACAGCCAGAGAGTGGAGTACTACCACTGTGCTACTGTCAGCTGAT
- Kd: 13.9 ± 3.3 µM

Source: paper PMC4705477, “Biochemical Characterization of Nonamer Binding Domain of RAG1 Reveals its Thymine Preference with Respect to Length and Position”
